We go through three molecules from patent US20230374147A1 (HUMMINGBIRD BIOSCIENCE PTE, published 2023).

Positions count from the first letter of the chain named. Like-named read-outs stand apart in the source and are kept apart here.

As usually defined, the EC50 (read off the curve) is the midpoint of the concentration-response curve. As a reminder, the Kd is the equilibrium constant for the complex coming apart. A high value points to lower affinity. In general, IC50 refers to the point on the concentration scale where inhibition reaches its midpoint. As a reminder, the EC50 is the concentration that produces a half-maximal response.

Experiment [1] deals with T1, His-tagged cynomolgous macaque BCMA (Acro Biosystems, BCA-C52H7) (cynomolgus macaque, UniProt Q02223 1-54 (human entry)).
T1 construct: Bought protein; also called cyno BCMA; CyBCMA; not shown: His tag
In words: BLI, His-tagged cynomolgus BCMA on HIS1K tip. Background: BLI is a label-free optical method that tracks binding on a fibre tip over time.

The target in experiment [2] is T2, human BCMA expressed on cells (human, UniProt Q02223 1-184).
T2 construct: the cell line is named under assay; also called wildtype human BCMA
T2 sequence: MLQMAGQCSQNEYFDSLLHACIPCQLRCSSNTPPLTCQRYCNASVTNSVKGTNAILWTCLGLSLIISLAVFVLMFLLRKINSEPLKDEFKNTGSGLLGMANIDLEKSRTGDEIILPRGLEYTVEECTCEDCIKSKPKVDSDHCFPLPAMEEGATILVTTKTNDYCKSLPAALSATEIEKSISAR
Put plainly: flow cytometry, H929 cells (BCMA-expressing). (Flow cytometry measures light scatter and fluorescence of single cells or particles in a stream.)

For experiment [3], the target named is T3, recombinant his-tagged human TACI (Sinobiological cat #11937-H08H) (human, UniProt O14836 1-165).
T3 construct: Bought protein; also called Human TACI-His; huTACI; not shown: His tag
T3 sequence: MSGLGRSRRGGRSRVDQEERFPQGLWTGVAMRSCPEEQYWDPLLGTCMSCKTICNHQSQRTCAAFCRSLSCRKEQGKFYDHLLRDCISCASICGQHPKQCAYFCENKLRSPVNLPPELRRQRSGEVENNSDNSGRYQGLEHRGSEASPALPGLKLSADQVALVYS
In words: ELISA, coated His-tagged human TACI. (In general: ELISA stands for enzyme-linked immunosorbent assay.)

Experiment [4] concerns the target T4, cynomolgous macaque BCMA expressed on CHOK1 cells.
T4 construct: also called cyno BCMA on cells
In words: flow cytometry, CHOK1 cells transiently expressing cynomolgus BCMA.

The target in experiment [5] is T5, His-tagged human BCMA (Acro Biosystems, Cat. #BCA-H522y) (human, UniProt Q02223 1-54).
T5 construct: also called huBCMA; P1; not shown: His tag
T5 sequence: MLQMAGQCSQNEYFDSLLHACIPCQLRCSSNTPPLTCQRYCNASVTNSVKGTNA
In words: BLI, His-tagged human BCMA on HIS1K tip, no APRIL; R2 0.9901.

Experiment [6] has as its target T5, His-tagged human BCMA (Acro Biosystems, …). In words: BLI, His-tagged human BCMA on HIS1K tip.
Experiment [7] addresses T1, His-tagged cynomolgous macaque BCMA …. In words: BLI, His-tagged cynomolgus BCMA on HIS1K tip; R2 0.9625.
Experiment [8] concerns the target T5, His-tagged human BCMA (Acro Biosystems, …). Put plainly: BLI, His-tagged human BCMA on HIS1K tip; R2 0.9973.
The target in experiment [9] is T1, His-tagged cynomolgous macaque BCMA …. In words: ELISA, coated His-tagged cynomolgus BCMA.
Experiment [10] deals with T2, human BCMA expressed on cells. In words: flow cytometry, HEK293 cells stably expressing human BCMA.
In experiment [11] the target is T1, His-tagged cynomolgous macaque BCMA …. Put plainly: BLI, His-tagged cynomolgus BCMA on HIS1K tip; R2 0.9022.
Experiment [12] concerns the target T2, human BCMA expressed on cells. Put plainly: flow cytometry, H929 cells (BCMA-expressing). The source holds these as a separate data set.
Experiment [13] deals with T5, His-tagged human BCMA (Acro Biosystems, …). Put plainly: ELISA, coated His-tagged human BCMA.
The target is the same in experiment [14]. Put plainly: competition ELISA: His-tagged human BCMA binding to coated APRIL-Fc in the presence of the antibody.
The target is the same in experiment [15]. Put plainly: ELISA, coated His-tagged human BCMA. The source holds these as a separate data set.
The target of experiment [16] is T6, His-tagged mouse BCMA (Acro Biosystems, BCA-M52H3) (mouse, UniProt O88472 1-49).
T6 construct: Bought protein; not shown: His tag
T6 chain: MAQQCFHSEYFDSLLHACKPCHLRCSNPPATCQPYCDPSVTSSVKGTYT
In words: BLI, His-tagged mouse BCMA on HIS1K tip.

For experiment [17], the target named is T6, His-tagged mouse BCMA (Acro Biosystems, …). Put plainly: BLI, His-tagged mouse BCMA on HIS1K tip; R2 0.9686.
For experiment [18], the target named is T3, recombinant his-tagged human TACI …. In words: ELISA, coated His-tagged human TACI. This is another data set of the same source.
For experiment [19], the target named is T5, His-tagged human BCMA (Acro Biosystems, …). Put plainly: BLI, His-tagged human BCMA on HIS1K tip, no APRIL; R2 0.9919.
The target in experiment [20] is T2, human BCMA expressed on cells. Put plainly: flow cytometry, HEK 293 cells expressing human BCMA.
Experiment [21] addresses T3, recombinant his-tagged human TACI …. Put plainly: ELISA, coated His-tagged human TACI. This is another data set of the same source.
The target in experiment [22] is T7, human TACI expressed on cells (human, UniProt O14836 1-293).
T7 construct: also called wildtype human TACI
T7 sequence: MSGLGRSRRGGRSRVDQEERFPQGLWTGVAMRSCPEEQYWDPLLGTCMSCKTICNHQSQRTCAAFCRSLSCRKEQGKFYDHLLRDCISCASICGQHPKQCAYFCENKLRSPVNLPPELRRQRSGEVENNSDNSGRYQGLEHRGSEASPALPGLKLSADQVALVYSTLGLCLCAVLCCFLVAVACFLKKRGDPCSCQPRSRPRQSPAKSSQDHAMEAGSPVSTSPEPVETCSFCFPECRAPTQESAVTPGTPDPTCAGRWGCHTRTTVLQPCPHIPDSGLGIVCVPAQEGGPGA
In words: flow cytometry, HEK 293 cells expressing human TACI.

Experiment [23] concerns the target T5, His-tagged human BCMA (Acro Biosystems, …). Put plainly: BLI, His-tagged human BCMA on HIS1K tip; R2 0.9919.
The target in experiment [24] is T8, BCMA Mut (human, UniProt Q02223 1-184).
T8 construct: Expressed on HEK293T cells; also called human BCMA comprising the substitutions Y13A, D15A, L17G and L18G
T8 chain: T2 sequence with Y13A, D15A, L17G, L18G
In words: flow cytometry on HEK293T cells expressing BCMA Mut.

In experiment [25] the target is T4, cynomolgous macaque BCMA expressed on …. Put plainly: flow cytometry, CHOK1 cells transiently expressing cynomolgus BCMA. This is another data set of the same source.
Experiment [26] concerns the target T2, human BCMA expressed on cells. In words: flow cytometry, HEK293 cells stably expressing human BCMA. This is another data set of the same source.
Experiment [27] concerns the target T6, His-tagged mouse BCMA (Acro Biosystems, …). Put plainly: BLI, His-tagged mouse BCMA on HIS1K tip; R2 0.9322.
Experiment [28] deals with T1, His-tagged cynomolgous macaque BCMA …. In words: BLI, His-tagged cynomolgus BCMA on HIS1K tip; R2 0.9501.
Experiment [29] addresses T5, His-tagged human BCMA (Acro Biosystems, …). In words: BLI, His-tagged human BCMA on HIS1K tip; R2 0.9901.

B1: 552-LN2-F8 hIgG1 (antibody, V domains shown)
VH: QIQLVQSGPELKKPGETVKISCKASGYTFTDYTMYWVKQAPGKGLKWMGWINTETGEPTYADDFKGRFVFSLETSANTAYLQINNLKNEDTATYFCAISYYYGMDYWGQGTSVTVTS
VL: DIILTQSPASLAVSLGQRATITCRASKSVSTSGYNFVYWYQQKPGQPPKLLIYLASNLESGVPARFSGSGSGTDFTLNIHPVEEEDAATYYCQHSRELPRTFGGGTKLEIKR
notes: Human-mouse chimeric antibody, human IgG1 format; also called [9]
For the molecule B1, the “Cyno BCMA response” value in experiment [1] was determined as 1.58. Besides, the concentration giving a half-maximal response (EC50 (read off the curve)) in [2] was ~0.1 mg/L; in experiment [9], ~0.08 mg/L; in [10], ~0.5 mg/L. The binding result in [3] is “no binding (tested: 10 ug/ml)”; in experiment [4], “binds”. In addition, the dissociation constant Kd in [5] is < 0.001 nM; in experiment [7] it was 59.8 nM; in [8], < 0.001 nM. In addition, in [6], the “Human BCMA response” value worked out at 2.31.

B2: 538-SP5-B10 hIgG1 (antibody, V domains shown)
VH: EVQLQQSGPELVKPGASVKMSCKASGYTFTSYVMHWVKQKPGRGLEWIAYILPFNDVTKYNEKFKGKATLTSDKSSNTAYMELSSLTSEDSAVYYCARWEWDDGYFDYWGQGTTLTVSS
VL: DAVMTQTPLSLPVSLGDQASISCRSSQSLENSNGNTYLNWYLQKPGQSPQLLIYRVSNRFSGVLDRFSGSGSGTDFTLKISRVEAEDLGVYFCLQVSHVPFTFGAGTKLELKR
notes: Human-mouse chimeric antibody, human IgG1 format
As for B2, the equilibrium dissociation constant (Kd) is 31.4 nM in experiment [11], 47.5 nM in [17], < 0.001 nM in experiment [19] and < 0.001 nM in [23]. In addition, the concentration for a half-maximal effect (EC50 (read off the curve)) in experiment [12] was ~1 nM; in experiment [13], ~0.01 mg/L; in experiment [2], ~0.03 mg/L; in experiment [18], ~0.4 mg/L; in experiment [26], ~0.03 mg/L. The “Cyno BCMA response” value in experiment [1] was 0.895. Further, the IC50 in experiment [14] worked out at 0.39 nM. The EC50 in experiment [15] was found to be 0.085 nM; in experiment [20], 0.21 nM; in experiment [21], 2.53 nM; in [22], 24.1 nM. The “Mouse BCMA response” value in experiment [16] was determined as 1.31. The “Human BCMA response” value in experiment [6] came out at 2.35. The binding result in experiment [24] is “no binding”; in [25], “binds”.

B3: 539-SP5-D7 hIgG1 (antibody, V domains shown)
VH: EVMLVDSGGNLVKPGGSLKLSCAASGFTFSNYVISWVRQTPEKRLEWVATISTVGTNTYYPDSVRGRFTISRDNAENTLYLQMSSLRSEDTAIYYCSRHKYGYDDPSYAMDYWGQGTSVTVSS
VL: QLVLTQSSSASFSLGASAKLTCTLSSQHSTYTIEWYQQQPLKPPKYVMELKKDGSHSTGDGIPDRFSGSSSGADRYLSISNIQAEDEAIYICGVGDTVKEQFVYVFGGGTKVTVLG
notes: Human-mouse chimeric antibody, human IgG1 format, lambda light chain; also called [4]
Regarding B3, the “Cyno BCMA response” value in [1] was determined as 0.265. For the same molecule, the “EC50 (read off the curve)” value in [2] is ~0.3 mg/L. In addition, the Kd was 4.86 nM in [27], < 0.001 nM in [5], 167 nM in [28] and < 0.001 nM in [29]. The “Mouse BCMA response” value in [16] was found to be 1.01. Moreover, the binding result in [4] is “binds”. Further, the “Human BCMA response” value in [6] was found to be 2.14.
